Publication PMC8144298

Target: CsrA-3xFLAG (Escherichia coli) (UniProt P69913)
Assay: competition
Conditions: competitor conc. that fully displaces labeled RrBshort (120 pM) from 200 nM CsrA; CsrA EMSA: 100 mM KCl, 10 mM MgCl2, 2 mM DTT, 7.5% glycerol, 2 ng total yeast RNA, 120 pM RNA, 10 min 37 C, 8% native PAGE in 1x TBE (pH not stated); Hfq EMSA: …

Chain of CsrA-3xFLAG (Escherichia coli) (P69913 whole entry): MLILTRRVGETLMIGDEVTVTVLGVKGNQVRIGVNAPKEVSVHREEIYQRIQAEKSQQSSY

CsrB
binding signal: 3.13 nM
